≈ marks a conversion by molar mass, not a printed value. Like-named read-outs stand apart in the source and are kept apart here.
Tests used:
MDA-MB-468 = assay: cells; settings: Homo sapiens
Control-MMB = Control-MMB (Homo sapiens, UniProt P01857); assay: Phage ELISA on Control-MMB; type: binding
Experimental: (§1) The protein solution was removed and wells were rinsed twice with Tris-Buffered Saline containing 0.05% Tween-20 (TBS-T) using a plate washer (Embla). The wells were blocked with Starting Block in TBS for 1 hr at room temperature and rinsed twice with TBS-T. An equal volume of phage supernatant and Starting Block in TBS were incubated in the wells for 1 hr at room temperature, and the wells were rinsed five times with TBS-T. Anti-M13/horseradish peroxidase conjugate (Amersham), diluted 1:5000 in Starting Block in TBS, was added into the wells and incubated for 1 hour at room temperature, and then the wells were rinsed five times with TBS-T. Finally, chemiluminescent peroxidase substrate (Roche) was added to the wells, and chemiluminescence was measured on a Tecan plate reader.
The plates were held overnight at room temperature, washed twice with TBST (0.5M Tris Base, 9% NaCl, 0.05% tween, pH 7.6), and loaded with 200 μL per well of Starting Block (Pierce). […] The plates were held at room temperature for 1.5 hours for blocking Plates were then washed twice with TBST and phage were added. […] After a one-hour incubation the plates were washed five times with TBST, 100 μL of POD (BM Chemiluminescence ELISA substrate; Roche Applied Science) was added, and chemiluminescene recorded.

sEGFR-MMB [1] = molecular target: T1, sEGFR-MMB (Homo sapiens, UniProt P00533); assay: Competitive phage ELISA (EGF, TGF-α, IMC-c225 as competitive agent); type: binding
T1 construct: made in house; host or cells: HEK 293E
Experimental: (§2) Phage were amplified in XL-1 Blue host cells and purified by precipitation with 6% polyethylene glycol-8000/0.5 M sodium chloride. The precipitated phage were resuspended in phosphate-buffered saline in a volume that was 1/100th the original culture volume. […] The binding reaction was incubated for 1 hr at room temperature, and then bound phage were detected with anti-M13/HRP as above. For ELISAs with biotinylated receptors, streptavidin at 5 μg/ml was coated in the wells overnight at 4° C. […] The wells were rinsed with TBS-T and then blocked with Starting Block. Bound phage were washed and detected with anti-M13/HRP as described above.

EGF + sEGFR-MMB Complex = molecular target: T2, EGF + sEGFR-MMB Complex (Homo sapiens, UniProt P00533); assay: Phage ELISA on sEGFR-MMB in the presence of EGF; type: binding
T2 construct: made in house
Experimental: (§3) The plates were held overnight at room temperature, washed twice with TBST (0.5M Tris Base, 9% NaCl, 0.05% tween, pH 7.6), and loaded with 200 μL per well of Starting Block (Pierce). […] The plates were held at room temperature for 1.5 hours for blocking Plates were then washed twice with TBST and phage were added. The phage solutions were crude phage supernatant from overnight cultures diluted four-fold with Starting Block. After a one-hour incubation, the plates were washed thrice with TBST and 100 μL of a 1:5000 dilution of phage binding antibody conjugate (α-M13-HRP) was added to the wells. EGF was added if applicable. After a one-hour incubation the plates were washed five times with TBST, 100 μL of POD (BM Chemiluminescence ELISA substrate; Roche Applied Science) was added, and chemiluminescene recorded.

sEGFR-MMB [2] = molecular target: T1, sEGFR-MMB; assay: Phage ELISA on coated sEGFR-MMB; type: binding
Experimental: as §1, §2, §3

MCF-7 = assay: Flow cytometry of phage binding to MCF-7 cells; type: cell-based, human
Experimental: (§4) To evaluate whether the selected peptides from phage display can bind to tumor cells that overexpress EGFR, A431 cells (epidermoid cancer) or an EGFR negative tumor cells, MCF-7 (breast carcinoma) were tested in a flow cytometry assay using fluorescence detection (FACS). For P145, PP146 and their control phage, 2.5×10^5 A431 cells were resuspended in 25 μl of flow staining buffer (dPBS with 1% BSA, 0.09% sodium azide) and incubated with 25 μl of phage clones for 1 hour at 4° C. […] Cells were washed two times with flow staining buffer and then incubated with 0.5 μg of mouse anti M13/fd/Fl filamentous phages monoclonal antibody conjugated to FITC (Fitzgerald Industries International, Inc. Concord, Mass.) for 45 minutes at 4° C. Cells were washed two times with flow staining buffer and acquired by FACSCalibur (BD, Franklin Lakes, N.J.) to detect bound phages on tumor cell surface.
A431 cells (epidermoid cancer) which overexpress EGFR and EGFR-negative tumor cells, MCF-7 (breast carcinoma) were tested in a flow cytometry assay. Tumor cells (A431 and MCF-7) were harvested with 0.25% tyrpsin-EDTA and washed twice with FACS staining buffer (dPBS with 1% BSA, 0.09% sodium azide). […]

sEGFR-His6 = molecular target: T3, sEGFR-His6 (Homo sapiens, UniProt P00533); assay: Phage ELISA on coated sEGFR-His6; type: binding
T3 construct: made in house; host or cells: HEK293E
Experimental: as §3

A431 cells = assay: Flow cytometry of phage binding to A431 cells; type: cell-based, human; settings: for binding to A431 tumor cells: anti-phage-FITC
Experimental: as §4
A431 cells (epidermoid cancer) which overexpress EGFR and EGFR-negative tumor cells, MCF-7 (breast carcinoma) were tested in a flow cytometry assay. Tumor cells (A431 and MCF-7) were harvested with 0.25% tyrpsin-EDTA and washed twice with FACS staining buffer (dPBS with 1% BSA, 0.09% sodium azide). […] After binding at 4° C., cells were washed twice with FACS staining buffer to remove unbound phage and then incubated with 0.5 μg of mouse anti-M13 monoclonal antibody conjugated to FITC (Fitzgerald Industries International, Inc. Concord, Mass.) for 1 hour at 4° C. Mouse anti-M13-FITC incubated with cells without phage was used as background binding. Cells were washed twice with FACS staining buffer to remove unbound detection antibody.

b-sEGFR-MMB = molecular target: T4, b-sEGFR-MMB (Homo sapiens, UniProt P00533); assay: Phage ELISA on biotinylated sEGFR-MMB captured on streptavidin; type: binding
T4 construct: made in house; host or cells: HEK 293E
Experimental: as §2

b-sEGFR-His = molecular target: T5, b-sEGFR-His (Homo sapiens, UniProt P00533); assay: Phage ELISA on biotinylated sEGFR-His6 captured on streptavidin; type: binding; settings: biotinylated and immobilized on streptavidin
T5 construct: made in house; host or cells: HEK293E
Experimental: as §2

Compound	binding to sEGFR-MMB (in words) (sEGFR-MMB [2])	binding to sEGFR-His6 (in words) (b-sEGFR-His)	competition with EGF, TGF-α, IMC-c225 (in words) (sEGFR-MMB [1])	binding to A431 tumor cells (A431 cells)	binding to A431 relative to positive control EGF phage (A431 cells)	also measured
COc1cccc2c1C(=O)c1c(O)c3c(c(O)c1C2=O)C[C@@](O)(C(=O)CO)C[C@@H]3O[C@H]1C[C@H](N)[C@H](O)[C@H](C)O1 [Doxorubicin]						IC50 (MDA-MB-468; MDA-MB-468, read-out: IC50 D4): 2.5 µg/mL (≈ 4.6 µM); IC50 (MDA-MB-468; MDA-MB-468, read-out: IC50 D6): < 1.6 µg/mL
DPCTWEVWGRECLQ [P190]	binds weakly		did not compete with EGF or TGF-alpha	bind to A431		binding to Control-MMB (in words) (Control-MMB): fails to bind; binding to dimeric EGFR in the presence of EGF or TGF-a (EGF + sEGFR-MMB Complex; pIX display): increased in the presence of EGF or TGF-a; binding to the complex between EGF and sEGFR-MMB (in words) (EGF + sEGFR-MMB Complex; phage ELISA): binds well; Relative Signal (EGF + sEGFR-MMB Complex; phage ELISA, construct SEGFR-MMB + EGF): 29408 ± 259; Relative Signal (sEGFR-MMB [2]; construct SEGFR-MMB): 3937 ± 335; binding to MCF-7 (MCF-7): not to MCF-7; binding to sEGFR-His6 (in words) (sEGFR-His6; coated monomeric sEGFR): virtually no binding; Relative Signal (sEGFR-His6; construct sEGFR-His6): 6; binding to A431 cells in the presence of EGF (A431 cells): increased; binding to A431 cells in the presence of EGF and cetuximab (A431 cells): decreases
GPCVLIRDYYLLCLE (Random peptide) [P179]	bound sEGFR-MMB when it was passively immobilized in ELISA wells					binding to biotinylated sEGFR-MMB captured on streptavidin (in words) (b-sEGFR-MMB): not biotinylated sEGFR-MMB that had been captured on streptavidin
TLCRSFFHPLCYA (Random peptide) [P146]				displayed binding to A431 tumor cells	weaker than that exhibited by a positive control phage that displayed EGF on pIII	
VLCHRYYHPICYT [P145]				displayed binding to A431 tumor cells	weaker than that exhibited by a positive control phage that displayed EGF on pIII	

Second part, led by results:

binding to sEGFR-MMB (in words) (sEGFR-MMB [2])	binding to sEGFR-His6 (in words) (b-sEGFR-His)	Compound	competition with EGF, TGF-α, IMC-c225 (in words) (sEGFR-MMB [1])	binding to A431 tumor cells (A431 cells)	binding to A431 relative to positive control EGF phage (A431 cells)	also measured
bound both sEGFR-MMB and sEGFR-His6	bound both sEGFR-MMB and sEGFR-His6	KTCVSTTFDLWFVCFA (Random peptide) [P176]	competitive with IMC-c225 (cetuximab), EGF, and TGF-α	displayed binding to A431 tumor cells	comparable to that by a positive control phage that displayed EGF on pIX	
bound sEGFR-MMB	not sEGFR-His6	LPDDSLPELICKVRG (Random peptide) [P175]	did not compete with EGFR ligands			
bound both sEGFR-MMB and sEGFR-His6	bound both sEGFR-MMB and sEGFR-His6	SGCLDALWQCVY (Random peptide) [P174]	not inhibited by the EGFR ligands tested	displayed binding to A431 tumor cells	comparable to that by a positive control phage that displayed EGF on pIX	

Reference: patent US8278415B2, “Dimeric high affinity EGFR constructs and uses thereof” (Centocor, Inc., priority 2006, dated 2012)
